# Measured values: PMC11058820
# Molecular target: HLA-A*11:01 monomer (commercial, biotinylated, preloaded with a UV-sensitive peptide that is destroyed by UV) (human)
# Assay: ELISA; UV-mediated peptide exchange: 25 μM peptide in PBS mixed 1:1 with […] biotinylated UV-sensitive HLA-A*11:01 monomer on ice, 366 nm UV 30 min; stable monomers captured on streptavidin plates and detected with HRP anti-human β2-microglobulin; result as percentage of positive signal against positive and negative control peptides
binder,measurement,value
VVGAGGVGK [KRAS_(8–16)^WT peptide],percentage of positive signal,46.6%
